Experimental data taken from US20190248887A1.

Target: synthetic peptide representing amino acids 24 through 39 of FXYD5 (Seq ID No. 1), coupled to maleimide activated BSA (Homo sapiens)
Assay: chemiluminescent ELISA, BSA-coupled peptide 24-39 coated, streptavidin-HRP detection; printed as relative binding affinity

N20-linker-biotin conjugate (goat polyclonal anti-FXYD5 N20, sc-30602, coupled via SM(PEG)24 to biotin) (antibody)
EC50: 3.75 nM

L15-linker-biotin conjugate (goat polyclonal anti-FXYD5 L15, sc-30603, coupled via SM(PEG)24 to biotin) (antibody)
EC50: 38.2 nM
